T1: human IL-23 (IL-23-His-Biotin) (human, UniProt Q9NPF7 20-189; P29460 23-328, biotin label, site not stated)
T1 construct: Akesobio lot 20161209; His-tagged and biotinylated
T1 sequence (looked up) 1: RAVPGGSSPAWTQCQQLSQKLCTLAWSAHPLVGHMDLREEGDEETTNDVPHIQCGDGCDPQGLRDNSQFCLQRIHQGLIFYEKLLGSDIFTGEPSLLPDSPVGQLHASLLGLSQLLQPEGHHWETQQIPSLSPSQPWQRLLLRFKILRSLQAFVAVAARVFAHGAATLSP
T1 sequence (looked up) 2: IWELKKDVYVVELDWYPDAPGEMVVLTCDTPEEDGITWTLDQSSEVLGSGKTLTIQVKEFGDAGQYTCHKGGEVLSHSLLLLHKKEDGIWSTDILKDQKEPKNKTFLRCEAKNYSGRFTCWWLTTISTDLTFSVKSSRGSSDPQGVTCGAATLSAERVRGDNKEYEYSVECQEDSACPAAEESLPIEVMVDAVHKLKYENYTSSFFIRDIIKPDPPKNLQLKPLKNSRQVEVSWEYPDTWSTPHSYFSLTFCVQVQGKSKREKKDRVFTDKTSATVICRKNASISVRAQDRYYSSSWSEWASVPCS

T2: Human IL12 (His Tag) (human, UniProt P29459 23-219; P29460 23-328)
T2 construct: Bought His-tagged heterodimer
T2 sequence (looked up) 1: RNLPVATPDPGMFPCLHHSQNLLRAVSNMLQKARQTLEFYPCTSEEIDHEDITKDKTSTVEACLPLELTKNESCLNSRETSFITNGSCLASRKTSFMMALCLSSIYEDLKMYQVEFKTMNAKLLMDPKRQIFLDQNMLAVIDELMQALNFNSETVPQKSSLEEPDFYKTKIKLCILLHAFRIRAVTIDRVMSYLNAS
T2 sequence (looked up) 2: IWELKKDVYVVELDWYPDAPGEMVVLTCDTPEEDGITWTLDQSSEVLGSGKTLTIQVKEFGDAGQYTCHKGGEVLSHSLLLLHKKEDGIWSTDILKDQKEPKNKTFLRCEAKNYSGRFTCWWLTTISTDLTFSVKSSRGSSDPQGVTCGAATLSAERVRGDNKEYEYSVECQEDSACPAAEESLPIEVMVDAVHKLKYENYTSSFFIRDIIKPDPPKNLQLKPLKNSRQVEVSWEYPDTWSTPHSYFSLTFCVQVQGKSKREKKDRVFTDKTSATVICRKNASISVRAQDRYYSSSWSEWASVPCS

T3: human p40-His (human, UniProt P29460 23-328)
T3 construct: Made by Akeso Biopharma; construct limits and tag not described; also called human IL-12/IL-23 p40 protein domain; human IL-12/IL-23 p40; not shown: His tag
T3 sequence (looked up): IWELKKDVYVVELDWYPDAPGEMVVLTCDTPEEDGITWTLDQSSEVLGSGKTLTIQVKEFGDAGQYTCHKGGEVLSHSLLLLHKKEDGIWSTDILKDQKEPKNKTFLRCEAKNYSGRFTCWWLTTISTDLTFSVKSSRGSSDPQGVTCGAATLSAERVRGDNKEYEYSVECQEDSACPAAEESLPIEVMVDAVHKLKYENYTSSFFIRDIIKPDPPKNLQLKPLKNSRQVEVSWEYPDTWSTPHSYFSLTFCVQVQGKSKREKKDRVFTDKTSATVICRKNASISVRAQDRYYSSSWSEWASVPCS


Tests used:
[1] = target: T1, human IL-23 (IL-23-His-Biotin); experiment: FACS competition, IL-23-His-Biotin 2 µg/mL on 293T-IL-12Rβ1&IL-23R cells; antibody 0.01 µg/mL
Procedure: (§1) 200 μL of 1% PBSA was added into each sample, and the mixture was centrifuged at 700×g for 5 min to discard the supernatant. According to experiment design, correspondingly diluted antibody (highest final concentration of 30 μg/mL, 3-fold dilution, 8 concentrations in total) and human IL-23 (IL-23-His-Biotin, Akesobio, 20161209) (final concentration of 2 μg/mL) were mixed at a ratio of 1:1, and a blank control was set. The mixture of antibody and human IL23 was incubated on ice for 30 min and then added to the cell precipitate at 100 μL/sample. The resulting mixture was well mixed and incubated on ice for 60 min. 200 μL of 1% PBSA was added, and the mixture was centrifuged at 700×g for 5 min to discard the supernatant, and then washed twice. FITC Steptavidin (Biolegend, Cat. No.: 405202) was diluted at a ratio of 1:500 and added to each tube at 100 μL. The mixture was well mixed and incubated on ice for 40 min in the absence of light. 200 μL of 1% PBSA was added, and the mixture was centrifuged at 700×g for 5 min to discard the supernatant, and then washed twice. 1% PBSA was added at 200 μL/tube, and the cells were resuspended and transferred to a flow cytometry tube for testing.

[2] = target: T1, human IL-23 (IL-23-His-Biotin); experiment: FACS competition, IL-23-His-Biotin 2 µg/mL on 293T-IL-12Rβ1&IL-23R cells; antibody 0.37 µg/mL
Procedure: as §1

Human IL12 (His Tag) [3] = target: T2, Human IL12 (His Tag); experiment: FACS competition, IL-12-His 20 nM on 293T-IL-12Rβ1&IL-23R cells; antibody 1.11 µg/mL
Procedure: (§2) 200 μL of 1% PBSA was added into each sample, and the mixture was centrifuged at 700×g for 5 min to discard the supernatant. According to experiment design, correspondingly diluted antibody (highest final concentration of 30 μg/mL, 3-fold dilution, 8 concentrations in total) and human IL-12 (Sino Biological, Cat. No.: CT-050-H08H-20) (final concentration of 20 nM) were mixed at a ratio of 1:1, and a blank control was set. The mixture of antibody and human IL12 was incubated on ice for 30 min and then added to the cell precipitate at 100 μL/sample. The resulting mixture was well mixed and incubated on ice for 60 min 200 μL of 1% PBSA was added, and the mixture was centrifuged at 700×g for 5 min to discard the supernatant, and then washed twice. Alexa Fluor® 488 anti-His tag antibody (Biolegend, Cat. No.: 652509) was diluted at a ratio of 1:400 and added to each tube at 100 μL. The mixture was well mixed and incubated on ice for 40 min in the absence of light. 200 μL of 1% PBSA was added, and the mixture was centrifuged at 700×g for 5 min to discard the supernatant, and then washed twice. 1% PBSA was added at 200 μL/tube, and the cells were resuspended and transferred to a flow cytometry tube for testing.

Human IL12 (His Tag) [4] = target: T2, Human IL12 (His Tag); experiment: FACS competition, IL-12-His 20 nM on 293T-IL-12Rβ1&IL-23R cells
Procedure: as §2

human p40-His = target: T3, human p40-His; experiment: indirect ELISA, p40-His coat 0.125 µg/mL
Procedure: A microplate was coated with human p40-His (Akeso Biopharma, Inc.; gene of p40: GeneBank NM002187). After incubation at 4° C. for no less than 12 h, the plate was washed with PBST, patted dry and blocked with a solution of 1% BSA in PBS. After blocking was completed, the plate was washed with PBST and patted dry. The antibody diluted with PBST solution in gradient was added into the wells of the plate, and the antibody dilution gradient is detailed in Table 1. The plate containing the test antibody was incubated at 37° C. for 30 min and then washed with PBST and patted dry. […] TMB (Neogen, 308177) was added for color developing for 5 min in the absence of light, and then stop solution was added to terminate the chromogenic reaction. Then the plate was put into a plate reader immediately, and the OD value of each well in the plate was read at 450 nm. The data were analyzed by SoftMax Pro 6.2.1.
The detection results of the binding of antibodies H5L11, H5L12, H5L14 and Ab123FR1 to the antigen human p40-His are shown in FIG. 3. The binding EC₅₀ of antibody was calculated by curve fitting using antibody concentration as the abscissa and absorbance value as the ordinate, and the results are shown in Table 3 below.

| MFI [1] | MFI [2] | MFI (Human IL12 (His Tag) [3]) | EC50 (Human IL12 (His Tag) [4]) | EC50 (human p40-His) | Binder |
| --- | --- | --- | --- | --- | --- |
| 223 MFI | 169 MFI | 44.6 MFI | 0.331 µg/mL |  | H5L10 (antibody, human IgG1, kappa, V domains shown, human IgG1 / kappa constant regions; also called humanized antibody H5L10) VH: EVQLVQSGAEVKKPGESLKISCQSSGYSFTTYWIGWVRQMPGQGLEWIGIMSPVDSDIRYNPMFRGQVTMSVDKSSSTAYLQWSSLKASDTAMYYCARRRPGQGYFDFWGQGTMVTVSS VL: EIVLTQSPATLSASPGERATISCRASQSVGSWLAWYQQKPGQAPRSLIYAASNLQSGIPARFSGSGSGTDFTLTISSLEPEDFAVYYCQQYNIYPYTFGQGTRLEIKR |
| 222 MFI | 206 MFI | 157 MFI |  |  | H5L9 (antibody, human IgG1, kappa, V domains shown, human IgG1 (P01857) / kappa (P01834) constant regions; also called humanized antibody H5L9) VH: EVQLVQSGAEVKKPGESLKISCQSSGYSFTTYWIGWVRQMPGQGLEWIGIMSPVDSDIRYNPMFRGQVTMSVDKSSSTAYLQWSSLKASDTAMYYCARRRPGQGYFDFWGQGTMVTVSS VL: DIQMTQSPSSLSASVGDRVTITCKASQNVGSWLAWYQQKPGKAPKSLIYSASSRQSGVPSRFSGSGSGTDFTLTISSLQPEDFATYYCQQYDIYPFTFGQGTKLEIKR |
| 219 MFI | 179 MFI | 54.3 MFI | 0.414 µg/mL | 82 pM | H5L11 (antibody, human IgG1, kappa, V domains shown, human IgG1 / kappa constant regions; also called humanized antibody H5L11) VH: EVQLVQSGAEVKKPGESLKISCQSSGYSFTTYWIGWVRQMPGQGLEWIGIMSPVDSDIRYNPMFRGQVTMSVDKSSSTAYLQWSSLKASDTAMYYCARRRPGQGYFDFWGQGTMVTVSS VL: EIVLTQSPATLSASPGERATISCRASQSVSSWLAWYQQKPGQAPRSLIYSASNLQSGIPARFSGSGSGTDFTLTISSLEPEDFAVYYCQQYNIYPYTFGQGTRLEIKR |
| 221 MFI | 177 MFI | 38.5 MFI | 0.317 µg/mL | 82 pM | H5L12 (antibody, human IgG1, kappa, V domains shown, human IgG1 / kappa constant regions; also called humanized antibody H5L12) VH: EVQLVQSGAEVKKPGESLKISCQSSGYSFTTYWIGWVRQMPGQGLEWIGIMSPVDSDIRYNPMFRGQVTMSVDKSSSTAYLQWSSLKASDTAMYYCARRRPGQGYFDFWGQGTMVTVSS VL: EIVLTQSPATLSASPGERATISCRASQSVSSWLAWYQQKPGQAPRSLIYAASNRQSGIPARFSGSGSGTDFTLTISSLEPEDFAVYYCQQYNIYPYTFGQGTRLEIKR |
| 218 MFI | 179 MFI | 66 MFI | 0.532 µg/mL | 107 pM | H5L14 (antibody, human IgG1, kappa, V domains shown, human IgG1 / kappa constant regions; also called humanized antibody H5L14) VH: EVQLVQSGAEVKKPGESLKISCQSSGYSFTTYWIGWVRQMPGQGLEWIGIMSPVDSDIRYNPMFRGQVTMSVDKSSSTAYLQWSSLKASDTAMYYCARRRPGQGYFDFWGQGTMVTVSS VL: EIVLTQSPATLSASPGERATISCRASQSVSSWLAWYQQKPGQAPRSLIYAASNLQSGIPARFSGSGSGTDFTLTISSLEPEDFAVYYCQQYNIYPFTFGQGTRLEIKR |
| 219 MFI | 186 MFI | 31.9 MFI | 0.377 µg/mL |  | ustekinumab (antibody, V domains shown) VH: EVQLVQSGAEVKKPGESLKISCKGSGYSFTTYWLGWVRQMPGKGLDWIGIMSPVDSDIRYSPSFQGQVTMSVDKSITTAYLQWNSLKASDTAMYYCARRRPGQGYFDFWGQGTLVTVSS VL: DIQMTQSPSSLSASVGDRVTITCRASQGISSWLAWYQQKPEKAPKSLIYAASSLQSGVPSRFSGSGSGTDFTLTISSLQPEDFATYYCQQYNIYPYTFGQGTKLEIK |
